B1: Serine/threonine-protein kinase MRCK alpha (Homo sapiens), Q5VT25 (parent)
chain: MSGEVRLRQLEQFILDGPAQTNGQCFSVETLLDILICLYDECNNSPLRREKNILEYLEWAKPFTSKVKQMRLHREDFEILKVIGRGAFGEVAVVKLKNADKVFAMKILNKWEMLKRAETACFREERDVLVNGDNKWITTLHYAFQDDNNLYLVMDYYVGGDLLTLLSKFEDRLPEDMARFYLAEMVIAIDSVHQLHYVHRDIKPDNILMDMNGHIRLADFGSCLKLMEDGTVQSSVAVGTPDYISPEILQAMEDGKGRYGPECDWWSLGVCMYEMLYGETPFYAESLVETYGKIMNHKERFQFPAQVTDVSENAKDLIRRLICSREHRLGQNGIEDFKKHPFFSGIDWDNIRNCEAPYIPEVSSPTDTSNFDVDDDCLKNSETMPPPTHTAFSGHHLPFVGFTYTSSCVLSDRSCLRVTAGPTSLDLDVNVQRTLDNNLATEAYERRIKRLEQEKLELSRKLQESTQTVQALQYSTVDGPLTASKDLEIKNLKEEIEKLRKQVTESSHLEQQLEEANAVRQELDDAFRQIKAYEKQIKTLQQEREDLNKELVQASERLKNQSKELKDAHCQRKLAMQEFMEINERLTELHTQKQKLARHVRDKEEEVDLVMQKVESLRQELRRTERAKKELEVHTEALAAEASKDRKLREQSEHYSKQLENELEGLKQKQISYSPGVCSIEHQQEITKLKTDLEKKSIFYEEELSKREGIHANEIKNLKKELHDSEGQQLALNKEIMILKDKLEKTRRESQSEREEFESEFKQQYEREKVLLTEENKKLTSELDKLTTLYENLSIHNQQLEEEVKDLADKKESVAHWEAQITEIIQWVSDEKDARGYLQALASKMTEELEALRNSSLGTRATDMPWKMRRFAKLDMSARLELQSALDAEIRAKQAIQEELNKVKASNIITECKLKDSEKKNLELLSEIEQLIKDTEELRSEKGIEHQDSQHSFLAFLNTPTDALDQFERSPSCTPASKGRRTVDSTPLSVHTPTLRKKGCPGSTGFPPKRKTHQFFVKSFTTPTKCHQCTSLMVGLIRQGCSCEVCGFSCHITCVNKAPTTCPVPPEQTKGPLGIDPQKGIGTAYEGHVRIPKPAGVKKGWQRALAIVCDFKLFLYDIAEGKASQPSVVISQVIDMRDEEFSVSSVLASDVIHASRKDIPCIFRVTASQLSASNNKCSILMLADTENEKNKWVGVLSELHKILKKNKFRDRSVYVPKEAYDSTLPLIKTTQAAAIIDHERIALGNEEGLFVVHVTKDEIIRVGDNKKIHQIELIPNDQLVAVISGRNRHVRLFPMSALDGRETDFYKLSETKGCQTVTSGKVRHGALTCLCVAMKRQVLCYELFQSKTRHRKFKEIQVPYNVQWMAIFSEQLCVGFQSGFLRYPLNGEGNPYSMLHSNDHTLSFIAHQPMDAICAVEISSKEYLLCFNSIGIYTDCQGRRSRQQELMWPANPSSCCYNAPYLSVYSENAVDIFDVNSMEWIQTLPLKKVRPLNNEGSLNLLGLETIRLIYFKNKMAEGDELVVPETSDNSRKQMVRNINNKRRYSFRVPEEERMQQRREMLRDPEMRNKLISNPTNFNHIAHMGPGDGIQILKDLPMNPRPQESRTVFSGSVSIPSITKSRPEPGRSMSASSGLSARSSAQNGSALKREFSGGSYSAKRQPMPSPSEGSLSSGGMDQGSDAPARDFDGEDSDSPRHSTASNSSNLSSPPSPASPRKTKSLSLESTDRGSWDP
partner: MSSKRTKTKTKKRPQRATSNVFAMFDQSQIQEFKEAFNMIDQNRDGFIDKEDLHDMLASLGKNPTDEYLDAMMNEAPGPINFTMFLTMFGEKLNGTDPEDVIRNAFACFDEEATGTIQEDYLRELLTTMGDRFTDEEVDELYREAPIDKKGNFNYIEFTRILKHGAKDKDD

Variants of: B1
Conditions: with ml12a_human MYL12A

Variant	effect of a mutation on the interaction
K106A	decreasing interaction
S234A	decreasing interaction
T403A	decreasing interaction
T240A	decreasing interaction

Reference: IntAct's records for PubMed 11283256
